Experimental data taken from patent publication US20060234942 (published 2006).

Target: T1, angiotensin I converting enzyme (ACE) (UniProt P12821)
T1 chain: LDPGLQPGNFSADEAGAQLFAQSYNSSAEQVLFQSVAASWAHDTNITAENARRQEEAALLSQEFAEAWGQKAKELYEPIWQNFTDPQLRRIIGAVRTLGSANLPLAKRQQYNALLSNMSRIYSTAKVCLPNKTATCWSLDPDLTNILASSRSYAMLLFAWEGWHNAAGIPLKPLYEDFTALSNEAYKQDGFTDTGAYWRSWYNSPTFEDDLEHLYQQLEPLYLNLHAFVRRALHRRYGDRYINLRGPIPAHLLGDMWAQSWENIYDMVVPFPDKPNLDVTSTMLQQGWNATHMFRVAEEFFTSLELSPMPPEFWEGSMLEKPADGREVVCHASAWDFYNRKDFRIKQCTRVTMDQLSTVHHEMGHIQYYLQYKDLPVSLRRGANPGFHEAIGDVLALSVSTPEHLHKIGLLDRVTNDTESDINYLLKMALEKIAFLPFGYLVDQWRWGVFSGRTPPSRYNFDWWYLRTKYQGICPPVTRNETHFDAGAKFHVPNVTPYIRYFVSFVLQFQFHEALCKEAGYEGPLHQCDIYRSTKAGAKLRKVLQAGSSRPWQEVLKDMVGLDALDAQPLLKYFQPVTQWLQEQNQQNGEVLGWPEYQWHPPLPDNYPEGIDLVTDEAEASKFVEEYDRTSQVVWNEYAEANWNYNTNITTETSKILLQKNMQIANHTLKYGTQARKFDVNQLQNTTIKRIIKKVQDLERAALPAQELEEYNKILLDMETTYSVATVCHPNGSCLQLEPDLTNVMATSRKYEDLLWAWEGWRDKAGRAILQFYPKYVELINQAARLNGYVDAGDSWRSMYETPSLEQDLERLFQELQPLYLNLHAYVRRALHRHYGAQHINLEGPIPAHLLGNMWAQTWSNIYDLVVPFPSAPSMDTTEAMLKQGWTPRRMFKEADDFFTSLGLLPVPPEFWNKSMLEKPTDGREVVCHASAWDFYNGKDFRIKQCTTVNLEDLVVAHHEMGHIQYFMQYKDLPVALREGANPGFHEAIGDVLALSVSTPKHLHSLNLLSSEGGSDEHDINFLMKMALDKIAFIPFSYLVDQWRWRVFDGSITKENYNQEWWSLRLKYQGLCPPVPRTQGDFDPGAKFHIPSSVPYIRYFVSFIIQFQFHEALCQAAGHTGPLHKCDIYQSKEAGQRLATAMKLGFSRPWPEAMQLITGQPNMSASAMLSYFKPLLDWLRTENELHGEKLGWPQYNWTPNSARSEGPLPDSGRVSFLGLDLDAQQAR
Assay: other, ACE inhibition

Binder | IC50 [µM]
FALPQY [FALPQY (CNαS2-(f174-179))] | 4.3
NMAINPSK [NMAINPSK (CNαS2-(f25-32))] | 60
ALNEINQFYQK [ALNEINQFYQK (CNαS2-(f81-91))] | 26.4
TVY [TVY (CNαS2-(f182-184))] | 15
FPQYLQY [FPQYLQY (CNαS2-(f92-98))] | 14
FALPQYLK [FALPQYLK (CNαS2-(f174-181))] | 4.3
ALNEINQFY [ALNEINQFY (CNαS2-(f81-89))] | 219
